One block for each binder: values may come before it.
Molecular target: T1, GST-p53, purified, bacterially produced (UniProt P04637 1-393)
T1 construct: p53 tumor suppressor protein; also called p53-pGEX; purified p53; source: bacteria, from a pGEX construct, purified
Assay: pull-down; purified GST-p53 (or GST-c-Jun) incubated with purified His-IκBα in IP buffer (25 mM Hepes pH 7.5, 75 mM KCl, 2.5 mM MgCl2, 0.1 mM EDTA, 0.15% NP-40, 1 mM DTT); glutathione Sepharose beads; autoradiography of 32P-IκBα or Western blot for IκBα
Conditions: both partners purified

T1 sequence (P04637 whole entry): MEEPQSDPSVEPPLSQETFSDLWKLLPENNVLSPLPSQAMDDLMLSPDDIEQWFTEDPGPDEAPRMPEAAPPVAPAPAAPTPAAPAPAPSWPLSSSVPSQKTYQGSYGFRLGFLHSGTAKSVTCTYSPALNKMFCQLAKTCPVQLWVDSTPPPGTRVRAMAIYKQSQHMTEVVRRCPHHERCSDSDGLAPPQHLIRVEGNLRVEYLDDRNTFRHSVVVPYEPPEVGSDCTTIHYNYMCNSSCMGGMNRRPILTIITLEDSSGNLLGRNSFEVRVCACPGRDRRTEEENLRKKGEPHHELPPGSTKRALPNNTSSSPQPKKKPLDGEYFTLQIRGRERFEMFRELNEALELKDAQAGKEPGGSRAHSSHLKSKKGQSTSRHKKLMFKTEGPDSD

binding result: binds
B1: [32P]-labeled 6xHis-tagged IκBα (His-IκBα), phosphorylated in vitro by p90rsk (natural protein, UniProt P25963 1-317, looked up)
chain: MFQAAERPQEWAMEGPRDGLKKERLLDDRHDSGLDSMKDEEYEQMVKELQEIRLEPQEVPRGSEPWKQQLTEDGDSFLHLAIIHEEKALTMEVIRQVKGDLAFLNFQNNLQQTPLHLAVITNQPEIAEALLGAGCDPELRDFRGNTPLHLACEQGCLASVGVLTQSCTTPHLHSILKATNYNGHTCLHLASIHGYLGIVELLVSLGADVNAQEPCNGRTALHLAVDLQNPDLVSLLLKCGADVNRVTYQGYSPYQLTWGRPSTRIQQQLGQLTLENLQMLPESEDEESYDTESEFTEFTEDELPYDDCVFGGQRLTL
modifications: 32P-phosphate put on in vitro by p90rsk; site not stated
notes: IκBα, wild type; also called [^32P]-labeled IκBα; purified bacterially-produced wild-type IκBα; source: bacterially produced, purified; labeled in vitro with [γ-32P]ATP and Xenopus laevis p90rsk

binding result: binds
B2: 6xHis-tagged IκBα (His-IκBα), purified, bacterially produced (natural protein, UniProt P25963 1-317, looked up)
chain: B1 chain
notes: IκBα, wild type; also called purified IκBα protein; hexahistidine-tagged IκBα; source: bacterially produced, purified

Source: PMC1184076, “Modulation of p53 activity by IκBα: Evidence suggesting a common phylogeny between NF-κB and p53 transcription factors” (BMC Immunology, 2005)
